The target of this experiment is CD74 disordered region peptide (CLIP), …. As to the kind of experiment: modified sandwich ELISA, fluorescence grade by the table's key. A general note: An ELISA detects its analyte on a solid surface through an enzyme-linked reagent.

In turn, FlhG showed a fluorescent signal (fluorescentsignal) of 100000 to 250000.

These data come from US20250387450A1.
